For this assay, the target named is SARS-CoV-2 S-HexaPro protein (SARS-CoV-2, Wuhan-Hu-1 type, stabilised). The assay is described as follows: SPR. For orientation: Surface plasmon resonance follows binding to a sensor surface in real time, without labels.

As a reminder, the Kd is the free concentration of one partner at which half of the binding sites on the other are occupied at equilibrium, for simple one-to-one binding.

B1: Fab22 (Fab, V domains shown)
VH: EVQLQQPGPVLVKPGASVRMSCKASGYRITDNFMNWVKQSHGKSLEWIGIINPYNGGTKYNQKFKGKATLTVDTSSSTAYMELNSLTSEDSAVYYCTRVRGNDYHGRAMDYWGQGTSVTVSS
VL: DVVLTQTPLSLPVNIGDQASISCKSTKSLLNRDGFTFLDWYLQKPGQSPQLLIYLVSNRFSGVPDRFSGSGSGTDFTLKISRVEAEDLGVYYCFQSNYLFTFGSGTKLEIK
The molecule B1 registered an equilibrium dissociation constant (Kd) of 6.7 nM.

These data come from PMC8519809 (Cell Reports, 2021).
